B3: pUL21-H6 (natural protein)
chain: MELSYATTMHYRDVVFYVTTDRNRAYFVCGGCVYSVGRPCASQPGEIAKFGLVVRGTGPDDRVVANYVRSELRQRGLQDVRPIGEDEVFLDSVCLLNPNVSSELDVINTNDVEVLDECLAEYCTSLRTSPGVLISGLRVRAQDRIIELFEHPTIVNVSSHFVYTPSPYVFALAQAHLPRLPSSLEALVSGLFDGIPAPRQPLDAHNPRTDVVITGRRAPRPIAGSGAGSGGAGAKRATVSEFVQVKHIDRVGPAGVSPAPPPNNTDSSSLVPGAQDSAPPGPTLRELWWVFYAADRALEEPRADSGLTREEVRAVRGFREQAWKLFGSAGAPRAFIGAALGLSPLQKLAVYYYIIHRERRLSPFPALVRLVGRYTQRHGLYVPRPDDPVLADAINGLFRDALAAGTTAEQLLMFDLLPPKDVPVGSDVQADSTALLRFIESQRLAVPGGVISPEHVAYLGAFLSVLYAGRGRMSAATHTARLTGVTSLVLAVGDVDRLSAFDRGAAGAASRTRAAGYLDVLLTVRLARSQHGQSV

How the values were obtained:
[1] = target: B3; test: ITC; hyperphosphorylated CERTL; mean of 3
[2] = target: B3; test: ITC; hyperphosphorylated CERTL; representative titration
[3] = target: the molecule itself; test: SEC-MALS; Superose 6 increase 10/300 GL, 20 mM Tris pH 8.5, 500 mM NaCl, 0.5 mM TCEP; samples injected at 2 mg/mL
[4] = target: T1, pUL21-H6 (HSV-1, UniProt P10205 1-535); test: ITC; 25°C, 20 mM Tris pH 8.5, 500 mM NaCl, 0.5 mM TCEP; CERTL forms or miniCERTL (about 190-380 μM) titrated into pUL21 forms (about 20-33 μM); one-site binding model; settings: both partners purified
T1 construct: HSV-1 tegument protein pUL21; The tag's end is read from the name pUL21-H6; also called wild-type pUL21; full-length pUL21; source: E. coli T7 Express lysY/Iq, purified (Ni-NTA, SEC); not shown: H6, C-terminal, kept
T1 sequence: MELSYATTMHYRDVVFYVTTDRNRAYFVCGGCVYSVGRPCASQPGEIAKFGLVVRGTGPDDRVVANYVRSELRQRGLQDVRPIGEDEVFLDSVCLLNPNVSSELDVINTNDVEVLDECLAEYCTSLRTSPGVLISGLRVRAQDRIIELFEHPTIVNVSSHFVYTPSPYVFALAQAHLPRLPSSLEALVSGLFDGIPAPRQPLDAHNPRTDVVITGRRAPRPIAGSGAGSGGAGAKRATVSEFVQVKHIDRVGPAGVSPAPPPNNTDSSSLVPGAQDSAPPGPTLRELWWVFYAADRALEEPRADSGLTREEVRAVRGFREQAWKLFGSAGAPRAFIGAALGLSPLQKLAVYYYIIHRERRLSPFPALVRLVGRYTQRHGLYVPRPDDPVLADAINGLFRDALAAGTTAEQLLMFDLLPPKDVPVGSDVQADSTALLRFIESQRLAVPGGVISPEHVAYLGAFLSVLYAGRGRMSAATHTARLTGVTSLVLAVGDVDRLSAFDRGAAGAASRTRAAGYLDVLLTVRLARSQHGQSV

[5] = target: T2, StrepII-CERTL^S132A (human, UniProt Q9Y5P4-1 1-624, S132A); test: ITC; mean of 2
T2 sequence: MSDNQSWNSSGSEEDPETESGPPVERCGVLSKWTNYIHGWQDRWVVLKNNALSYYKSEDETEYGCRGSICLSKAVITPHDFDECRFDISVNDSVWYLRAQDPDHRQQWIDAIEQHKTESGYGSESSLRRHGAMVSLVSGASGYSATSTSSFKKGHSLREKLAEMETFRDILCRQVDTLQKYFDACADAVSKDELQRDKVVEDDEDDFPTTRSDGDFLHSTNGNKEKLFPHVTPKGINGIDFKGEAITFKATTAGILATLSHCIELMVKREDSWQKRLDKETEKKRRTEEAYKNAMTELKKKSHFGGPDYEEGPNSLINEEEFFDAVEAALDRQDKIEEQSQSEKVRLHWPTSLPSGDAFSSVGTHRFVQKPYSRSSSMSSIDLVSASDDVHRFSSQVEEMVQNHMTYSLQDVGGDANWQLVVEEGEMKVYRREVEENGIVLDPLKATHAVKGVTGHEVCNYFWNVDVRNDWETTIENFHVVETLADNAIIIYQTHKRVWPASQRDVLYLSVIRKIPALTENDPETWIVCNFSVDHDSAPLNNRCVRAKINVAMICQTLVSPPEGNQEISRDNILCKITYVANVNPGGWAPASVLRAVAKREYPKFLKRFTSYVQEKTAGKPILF

[6] = target: T2, StrepII-CERTL^S132A; test: ITC; representative titration
[7] = target: B3; test: ITC; mean of 6
[8] = target: T3, H6-pUL21C (HSV-1, UniProt P10205 275-535); test: ITC; representative titration
T3 chain: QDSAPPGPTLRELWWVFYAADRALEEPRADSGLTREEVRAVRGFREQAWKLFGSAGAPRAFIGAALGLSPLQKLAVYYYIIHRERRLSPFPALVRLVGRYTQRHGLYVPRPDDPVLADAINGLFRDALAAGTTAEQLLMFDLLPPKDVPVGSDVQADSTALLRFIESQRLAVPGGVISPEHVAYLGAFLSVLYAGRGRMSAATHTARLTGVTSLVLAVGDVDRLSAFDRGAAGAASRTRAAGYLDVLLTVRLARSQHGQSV

[9] = target: B3; test: ITC; representative titration
[10] = target: T4, pUL21^V382E-H6 (HSV-1, UniProt P10205 1-535, V382E); test: ITC; 25°C, 20 mM Tris pH 8.5, 500 mM NaCl, 0.5 mM TCEP; CERTL forms or miniCERTL (about 190-380 μM) titrated into pUL21 forms (about 20-33 μM); one-site binding model; settings: both partners purified
T4 construct: HSV-1 tegument protein pUL21 with V382E; The tag's end is read from the name pUL21^V382E-H6; also called H6-pUL21^V382E; V382E pUL21-H6; source: E. coli T7 Express lysY/Iq, purified (Ni-NTA, SEC); not shown: H6, C-terminal, kept
T4 sequence: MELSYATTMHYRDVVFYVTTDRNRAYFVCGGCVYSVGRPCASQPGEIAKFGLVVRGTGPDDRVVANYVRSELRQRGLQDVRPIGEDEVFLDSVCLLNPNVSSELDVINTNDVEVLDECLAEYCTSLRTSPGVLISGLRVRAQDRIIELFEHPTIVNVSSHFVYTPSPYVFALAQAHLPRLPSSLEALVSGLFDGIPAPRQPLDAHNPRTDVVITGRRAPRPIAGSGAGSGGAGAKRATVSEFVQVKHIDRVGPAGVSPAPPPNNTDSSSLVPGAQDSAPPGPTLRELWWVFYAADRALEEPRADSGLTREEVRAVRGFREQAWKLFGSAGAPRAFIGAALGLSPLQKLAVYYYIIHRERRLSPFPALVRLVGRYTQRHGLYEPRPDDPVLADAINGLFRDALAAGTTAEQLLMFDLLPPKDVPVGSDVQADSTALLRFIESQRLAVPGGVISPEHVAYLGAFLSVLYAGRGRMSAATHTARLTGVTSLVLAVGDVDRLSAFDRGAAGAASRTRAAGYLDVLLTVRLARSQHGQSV

[11] = target: T5, H6-pUL21C (HSV-1, UniProt P10205 275-535); test: as above; settings: both partners purified
T5 construct: HSV-1 pUL21 C-terminal domain, amino acids 275-535; In pOPTH; N-terminal MAH6QD and C-terminal HGQSV are missing from the crystal structure 5ED7 and were modelled; also called C-terminal domain of pUL21; source: E. coli T7 Express lysY/Iq, purified (Ni-NTA, SEC); not shown: MAH6, N-terminal, kept
T5 sequence: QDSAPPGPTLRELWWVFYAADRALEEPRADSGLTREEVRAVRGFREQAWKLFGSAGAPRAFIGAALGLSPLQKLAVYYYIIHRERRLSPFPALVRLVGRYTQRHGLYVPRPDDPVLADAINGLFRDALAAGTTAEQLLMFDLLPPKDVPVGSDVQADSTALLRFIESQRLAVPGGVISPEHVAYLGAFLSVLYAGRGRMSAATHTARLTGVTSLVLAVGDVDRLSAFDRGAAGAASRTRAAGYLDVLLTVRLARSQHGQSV

B1: StrepII-CERTL^P (hyperphosphorylated StrepII-tagged CERTL) (natural protein, human, UniProt Q9Y5P4-1 1-624, looked up)
chain: MSDNQSWNSSGSEEDPETESGPPVERCGVLSKWTNYIHGWQDRWVVLKNNALSYYKSEDETEYGCRGSICLSKAVITPHDFDECRFDISVNDSVWYLRAQDPDHRQQWIDAIEQHKTESGYGSESSLRRHGSMVSLVSGASGYSATSTSSFKKGHSLREKLAEMETFRDILCRQVDTLQKYFDACADAVSKDELQRDKVVEDDEDDFPTTRSDGDFLHSTNGNKEKLFPHVTPKGINGIDFKGEAITFKATTAGILATLSHCIELMVKREDSWQKRLDKETEKKRRTEEAYKNAMTELKKKSHFGGPDYEEGPNSLINEEEFFDAVEAALDRQDKIEEQSQSEKVRLHWPTSLPSGDAFSSVGTHRFVQKPYSRSSSMSSIDLVSASDDVHRFSSQVEEMVQNHMTYSLQDVGGDANWQLVVEEGEMKVYRREVEENGIVLDPLKATHAVKGVTGHEVCNYFWNVDVRNDWETTIENFHVVETLADNAIIIYQTHKRVWPASQRDVLYLSVIRKIPALTENDPETWIVCNFSVDHDSAPLNNRCVRAKINVAMICQTLVSPPEGNQEISRDNILCKITYVANVNPGGWAPASVLRAVAKREYPKFLKRFTSYVQEKTAGKPILF
modifications: hyperphosphorylated; sites not given
notes: human CERTL, synthetic gene, UniProt Q9Y5P4-1; Observed mass by SEC-MALS approaches that of a trimer; not shown: StrepII, N-terminal, kept
For B1, the Kd [1] was 773 nM, the Kd [2] was 554 nM and the “stoichiometry N” value [3] was about 3. The “stoichiometry N” value [4] was 0.74.

B2: StrepII-CERTL^S132A (natural protein, human, UniProt Q9Y5P4-1 1-624, looked up)
chain: MSDNQSWNSSGSEEDPETESGPPVERCGVLSKWTNYIHGWQDRWVVLKNNALSYYKSEDETEYGCRGSICLSKAVITPHDFDECRFDISVNDSVWYLRAQDPDHRQQWIDAIEQHKTESGYGSESSLRRHGAMVSLVSGASGYSATSTSSFKKGHSLREKLAEMETFRDILCRQVDTLQKYFDACADAVSKDELQRDKVVEDDEDDFPTTRSDGDFLHSTNGNKEKLFPHVTPKGINGIDFKGEAITFKATTAGILATLSHCIELMVKREDSWQKRLDKETEKKRRTEEAYKNAMTELKKKSHFGGPDYEEGPNSLINEEEFFDAVEAALDRQDKIEEQSQSEKVRLHWPTSLPSGDAFSSVGTHRFVQKPYSRSSSMSSIDLVSASDDVHRFSSQVEEMVQNHMTYSLQDVGGDANWQLVVEEGEMKVYRREVEENGIVLDPLKATHAVKGVTGHEVCNYFWNVDVRNDWETTIENFHVVETLADNAIIIYQTHKRVWPASQRDVLYLSVIRKIPALTENDPETWIVCNFSVDHDSAPLNNRCVRAKINVAMICQTLVSPPEGNQEISRDNILCKITYVANVNPGGWAPASVLRAVAKREYPKFLKRFTSYVQEKTAGKPILF
notes: human CERTL, synthetic gene, UniProt Q9Y5P4-1, with S132A; Hypophosphorylated: S132 cannot be phosphorylated to start the phosphorylation cascade of the serine-rich motif; also called constitutively hypophosphorylated form of CERTL; source: stably transfected Freestyle 293F cells, doxycycline-induced, purified (StrepTrap HP, Superose 6 SEC); not shown: StrepII, N-terminal, kept
For B2, the “stoichiometry N” value [3] was about 3 and the “stoichiometry N” value [4] was 1.

Work on B3 yielded a Kd [5] of 642 nM and a Kd [6] of 460 nM.

B4: H6-miniCERTL (domain or fragment, human, UniProt Q9Y5P4-1 20-131, looked up)
chain: SGPPVERCGVLSKWTNYIHGWQDRWVVLKNNALSYYKSEDETEYGCRGSICLSKAVITPHDFDECRFDISVNDSVWYLRAQDPDHRQQWIDAIEQHKTESGYGSESSLRRHGTSLPSGDAFSSVGTHRFVQKPYSRSSSMSSIDLVSASDDVHRFSSQVEEMVQNHMTYSLQDVGGDANWQLVVEEGEMKVYRREVEENGIVLDPLKATHAVKGVTGHEVCNYFWNVDVRNDWETTIENFHVVETLADNAIIIYQTHKRVWPASQRDVLYLSVIRKIPALTENDPETWIVCNFSVDHDSAPLNNRCVRAKINVAMICQTLVSPPEGNQEISRDNILCKITYVANVNPGGWAPASVLRAVAKREYPKFLKRFTSYVQEKTAGKPILF
notes: human CERTL (UniProt Q9Y5P4-1), residues 20-131: PH domain without its first 19 residues and the start of the middle region; human CERTL (UniProt Q9Y5P4-1), residues 351-624: the end of the middle region and the STARTL domain; joined directly to residue 131 (MR residues 132-350 left out); Cloned into pOPTH, which encodes the N-terminal MAH6 tag; source: E. coli T7 Express lysY/Iq, purified …
B4 showed a Kd [7] of 1040 nM, a Kd [8] of 3.15 µM and a Kd [9] of 879 nM. For the same binder, the “fold reduction of binding affinity against wild-type pUL21” value [10] was about 8 fold and the Kd [11] was 4.3 µM.

Source: article doi:10.1101/2022.06.01.494398, “Herpes simplex virus 1 protein pUL21 stimulates cellular ceramide transport by activating CERT” (bioRxiv, 2022)
